The text below walks through data of the nanobody polyreactivity screen of Harvey et al. (2022).

This data set can be described thus: yeast display, Sf9 membrane polyspecificity reagent, FACS + sequencing; frameworks hold sequencing errors. Summed up: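 Polyreactivity labels are assigned by the sorting gate from which each nanobody was recovered. The gates were low and high (top ~1%), set on anti-HA fluorescence for expression and streptavidin fluorescence for reagent binding. Before sorting, galactose-induced (36–48 hours) yeast display cells were stained for 1 hour at 4 °C with 10% biotinylated, detergent-solubilized Sf9 membrane reagent.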
As for “QVQLVESGGGLVQAGGSLRLSCAASGSIFDIYAMGWYRQAPGKERELVADITISGGSTYYADSVKGRFTISRDNAKNTVYLQMNSLKPEDTAVYYCAADVTVVLGYKYDYWGQGTQVTVSS”, the “polyreactivity (PSR sort gate)” value is on record as “low polyreactivity”.

Turning to “QVQLVESGGGLVQAGGSLRLSCAASGSIFDIYGMGWYRQAPGKERELVASISRGAGSTNYADSVKGRFTISRDNAKNTVYLQMNSLKPEDTAVYYCAAEVYVPDYFQHKFDVEYEYWGQGTQVTVSS”, the “polyreactivity (PSR sort gate)” value was “low polyreactivity”. As for “QVQLVESGGGLVQAGGSLRLSCAASGSIFDKNAMGWYRQAPGKERELVAAIRRTSTTYYADSVKGRFTISRDNAKKTVYLQMNSLKPEDTAVYYCAATYGSGYWYPRYYYWGQGTQVTVSS”, the “polyreactivity (PSR sort gate)” value is reported as “high polyreactivity”. The result for “QVQLVESGGGLVQAGGSLRLSCAASGSIFDLIAMGWYRQAPGKERELVAAISSGGGTYYADSVKGRFTISRDNAKNTVYLQMNSLKPEDTAVYYCNRVTRWTYNYWGQGTQVTVSS” reads “high polyreactivity”; that for “QVQLVESGGGLVQAGGSLRLSCAASGSIFDLYAMGWYRQAPGKERELVAAINSGGSTYADSVKGRFTISRDNSKNTVYLQMNSLKPEDTAVYYCNADYRHSLGSGYDYWGQVTQVTVSS”, “low polyreactivity”; that for “QVQLVESGGGLVQAGGSLRLSCAASGSIFDLYAMGWYRQAPGKERELVDAISSGATTNYADSVKGRFTISRDNAKNTVYLQMNSLKPEDTAVYYCAKYYRISSLYVIVSAYDYWGQGTQVTVSS”, “low polyreactivity”.

Take “QVQLVESGGGLVQAGGSLRLSCAASGSIFDNYAMGWYRQAPGKEREFVAGISWSGGSTRYADSVKGRFTISRDNAKNTVYLQMNSLKPEDTAVYYCNTGYGLVDFLYGYYYWGQGTQVTVSS”: the “polyreactivity (PSR sort gate)” value is given as “low polyreactivity”. The result for “QVQLVESGGGLVQAGGSLRLSCAASGSIFDPNAMGWYRQAPGKERELLADIDSSDGSTYYADSVKGRFTISRDNAKNTVYLQMNSLKPEDTAVYYCNARYGGWVWSTYDHWGQGTQVTVSS” reads “low polyreactivity”; that for “QVQLVESGGGLVQAGGSLRLSCAASGSIFDPNAMGWYRQAPGKERELVANITNGGRTNYADSVKGRFTISRDNAKNTVYLQMNSLKPEDTAVYYCAKDSPFTSVTVLAPIIYDSWGQGTQVTVSS”, “low polyreactivity”; that for “QVQLVESGGGLVQAGGSLRLSCAASGSIFDPYAMGWSRQAPGKEREFVAAISYSAGSTYYADSVKGRFTISRDNAKNTVYLQMNSLKPEATAVYYCAARYTHTSPSIRSWAYYYWGQGTQVTVSS”, “high polyreactivity”.

With “QVQLVESGGGLVQAGGSLRLSCAASGSIFDPYAMGWYRQAPGKERELVAGISFSGGRTYYADSVKGRFTISRDNAKNTVYLQMNSLKPEDTAVYYCNKLLTQGAYPYYFWGQGTQVTVSS”, the “polyreactivity (PSR sort gate)” value was “high polyreactivity”.

For “QVQLVESGGGLVQAGGSLRLSCAASGSIFDPYAMGWYRQAPGKERELVAVINDGGRTTYADSVKGRFTISRDNAKNTVYLQMNSLKPEDTAVYYCAATYYFSRWDLFGYWGQGTQVTVSS”, the “polyreactivity (PSR sort gate)” value was “low polyreactivity”.

As to “QVQLVESGGGLVQAGGSLRLSCAASGSIFDRNAMGWYRQAPGKERELVAAITSGGSTYYADSVKGRFTISRDNAKNTVYLQMNSLKAEDTAVYYCNADADPPVPLYYWGQGTQVTVSS”, the “polyreactivity (PSR sort gate)” value is given as “low polyreactivity”. The result for “QVQLVESGGGLVQAGGSLRLSCAASGSIFDRNAMGWYRQAPGKERELVAAITSGGSTYYADSVKGRFTISRDNAKNTVYLQMNSLKPEDTGVYYCNADADPPVPLYYWGQGTQVTVSS” reads “low polyreactivity”; that for “QVQLVESGGGLVQAGGSLRLSCAASGSIFDRNAMGWYRQAPGKERELVATITWSGVSTYYADSVKGRFTISRDNAKNTVYLQMNSLKPEDTAVYYCNADYSYRHWYDPGQYGQAMGYWGLGTQVTVSS”, “low polyreactivity”. Take “QVQLVESGGGLVQAGGSLRLSCAASGSIFDRYALGWYRQAPGKERELVAAISTGGSTNYADSVKGRFTISRDNAKNTVYLQMNSLKPEDTAVYYCAAERYWVFHGTISYKYDYWGQGSQVTVSS”: the “polyreactivity (PSR sort gate)” value is reported as “low polyreactivity”. The result for “QVQLVESGGGLVQAGGSLRLSCAASGSIFDSYVMGCYRQAPGTERELVAAITYSGGSTYADSVKGRFTISRDNAKNTVYLQMNSLKPEDTAVYYCAADYYRGRYSYRYDYWGQGTQVTVSS” reads “low polyreactivity”; that for “QVQLVESGGGLVQAGGSLRLSCAASGSIFDSYVMGWYRQAPGKERELVAAITYSGGSTYADSVKGRFTISRDNAKNTVYLQMNSLKPEDTAVYYCAAASYFYLYLLEDYWGQGTQVTVSS”, “low polyreactivity”; that for “QVQLVESGGGLVQAGGSLRLSCAASGSIFDVNAMGWYRQAPGKERELVAAISDSGGSTYYADSVKGRFTISRDNAKNTVYLQMNSLKPEDTAVYYCNADWYWYNYYDFDYWGQGTQVTVSS”, “low polyreactivity”.

In the case of “QVQLVESGGGLVQAGGSLRLSCAASGSIFDVNAMGWYRQAPGKERELVAAISDSGGSTYYADSVKGRYTISRDNAKNTVYLQMNSLKPEDTAVYYCNADWSWYNYYDFDYWGQGTQVTVSS”, the “polyreactivity (PSR sort gate)” value is reported as “low polyreactivity”. For the sequence “QVQLVESGGGLVQAGGSLRLSCAASGSIFDVNAMGWYRQAPGKERELVAAISDSTTSTYYADSVKGRFTISRDNAKNTVYLQMNSLKPEDTAVYYCNTPGLPIDSEYDYWGQGTQVTVSS”, the “polyreactivity (PSR sort gate)” value is “low polyreactivity”. “QVQLVESGGGLVQAGGSLRLSCAASGSIFDVNAMGWYRQAPGKERELVAAISQRGTRTYYADSVKGRFTISRDNAKNTVYLQMNSLKAEDTAVYYCNRGGWRQYDSWGQGTQVTVSS”: the “polyreactivity (PSR sort gate)” value is listed as “high polyreactivity”. The result for “QVQLVESGGGLVQAGGSLRLSCAASGSIFDVNPMGWYRQAPGKERELVAAISQRGTRTYYADSVKGRFTISRDNAKNTVYLQMNSLKPEDTAVYSCNRGGWRQYDSWGQGTQVTVSS” reads “high polyreactivity”; that for “QVQLVESGGGLVQAGGSLRLSCAASGSIFDVNTMGWYRQAPGKERELVAAISRGGSTNYADSVKGRFTISRDNAKNTVYLQMNSLKPEDTAVYYCNKRYQNQYDYWGQGTQVTVSS”, “low polyreactivity”; that for “QVQLVESGGGLVQAGGSLRLSCAASGSIFDVNTMGWYRQAPGKERELVAAITNGDRTNYADSVKGRFTISRDNAKNTVYLQMNSLKPEDTAVYYCNTDQGTTSDYGYWGQGTQVTVSS”, “low polyreactivity”. The result for “QVQLVESGGGLVQAGGSLRLSCAASGSIFDVYAMGWYRQAPGKERELVAAITFSGGSTYYADSVKWRFTISRDNAKNTVYLQMNSLNPEDTAVYYCSVSRSYLYPVYGYYTWLGDYWGQGTQVTVSS” reads “low polyreactivity”; that for “QVQLVESGGGLVQAGGSLRLSCAASGSIFDVYAMGWYRQAPGQERELVAAISRGDSTNYADSVKGRFTISRDNAKNTVYLQMNSLKPEDTAVYYCAADCYYWGSGWRYDSWGQGTQVTVSS”, “low polyreactivity”. Regarding “QVQLVESGGGLVQAGGSLRLSCAASGSIFDVYTMGWSRQAPGKERELVAAISKRSGRTYYADSVKGRFTISRDNAKNTVYLQMNSLKPEDTAVYYCAARGYPTTAVTYDYWGQGTQVTVSS”, the “polyreactivity (PSR sort gate)” value is listed as “low polyreactivity”. The result for “QVQLVESGGGLVQAGGSLRLSCAASGSIFDVYTMGWYRPAPGKERELVAAISWSGGSTFYADSVKGRFTISRDNAKNTVYLQMNSLKPEDTAVYYCAAELSLGNYWYDFWGQGTQVTVSS” reads “high polyreactivity”.

For “QVQLVESGGGLVQAGGSLRLSCAASGSIFDVYVMGWYRQAPGKERELVAAITSTGSTNYADSVKGRFTISRDNAKNTVYLQMNSLKPEDTAVYYCATDGVYKHIQVLYDYWGQGTQVTVSS”, the “polyreactivity (PSR sort gate)” value was “low polyreactivity”. The result for “QVQLVESGGGLVQAGGSLRLSCAASGSIFDWNGMGWYRQAPGKERELVAAITWRGGRTYYADSVKGRFTISRDNAKNTVYLQMNSLKPEDTAVYYCAATRFFYSRYNYWGQGTQVTVSS” reads “high polyreactivity”; that for “QVQLVESGGGLVQAGGSLRLSCAASGSIFDWYVMGWYRQAPGKERELVAAITSGGSTNYADSVKGRFTISRDNAKNTVYLQMNSLKPEDTAVYFCAADTVSFSILYDYWGQGTQVTVSS”, “low polyreactivity”.

For “QVQLVESGGGLVQAGGSLRLSCAASGSIFDYNAMGWNRQAPGKDRELVAAISSGGSTYYADSVKGRFTISRDNAKNTVYLQMNSLKPEDTAVYYCAVKFWMVIQFDYWGQGTQVTVSS”, the “polyreactivity (PSR sort gate)” value was “low polyreactivity”. The result for “QVQLVESGGGLVQAGGSLRLSCAASGSIFDYNAMGWYRQAPGKEREFVAAISSSAGSTYYADSVKGRFTISRDNAKNTVYLEMNSLKPEDTAVYYCAADWYDFSFPYYEYEYWGQGTQVTVSS” reads “low polyreactivity”; that for “QVQLVESGGGLVQAGGSLRLSCAASGSIFDYNAMGWYRQAPGKEREFVAAISSSAGSTYYADSVKGRFTISRDNAKNTVYLQMNSLKPEDTAVYYCAARYQSPFRTYRFGMDYWGQGTQVTVSS”, “low polyreactivity”. The result for “QVQLVESGGGLVQAGGSLRLSCAASGSIFDYNAMGWYRQAPGKERELVAAISRSGGSTYYADSVKGRFTISRDNAKNTVYLQMNSLKPEDTAVYYCAALPSRPRGYDYWGHGTQVTVSS” reads “high polyreactivity”. The result for “QVQLVESGGGLVQAGGSLRLSCAASGSIFDYNAMGWYRQAPGKERELVASISGDSGSTYYADSVKGRFTISRDNAKNTDYLQMNSLKPEDTAVYYCAAPYVSWDYRYYYWGQGTQVTLSS” reads “low polyreactivity”. As for “QVQLVESGGGLVQAGGSLRLSCAASGSIFDYNTMGWYRQAPGKERELVAAISSGGSTYYADSVKGRFTISRDNAKNTVYLQMNSLKPEDTAVYYCAARRAGWWGFYYWGQATQVTVSS”, the “polyreactivity (PSR sort gate)” value was “high polyreactivity”. The result for “QVQLVESGGGLVQAGGSLRLSCAASGSIFDYTAMGWYRQAPGKERELVASIRWSGGRTYYADSVKGRFTISRDNAKNTVYLQMNSLKPEDTAVYYCNRKPQEYVLQGSSNGYDYWGQGTQVTVSS” reads “low polyreactivity”; that for “QVQLVESGGGLVQAGGSLRLSCAASGSIFDYYALGWYRQAPGKERELVATITSGVSTYYADSVKGRFTISRDNAKNTVYLQMNSLKPEDTAVYYCARDYAKSQDLYKYDYWGQGTQVTLSS”, “low polyreactivity”; that for “QVQLVESGGGLVQAGGSLRLSCAASGSIFDYYAMGWYRPAPVKERELVAAISDSGSTYYADSVKGRFTISRDNAKNTVYLQMNSLKPEDTAVYYCAAVLWSPYLSEPLETYEYWGQGTQVTVSS”, “low polyreactivity”.
